From doi:10.64898/2025.12.30.697104 come the findings set out here.

Where two headings read alike, the source gives them in different places.

In test [1] the target is Trichoplusia ni (Tni) beta-tubulin (Trichoplusia ni (endogenous in Tni cells)). The experiment in a line: cryo-EM structure.
Test [2] has the same target. The experiment in a line: cryo-EM structure. This is another data set of the same source.

With “Trichoplusia ni (Tni) beta-tubulin (natural protein)”, the stoichiometry N in test [1] and in test [2] was 2 in each case.
